Biological target: ncor2_human NCOR2 (UniProt Q9Y618)
Sequence (Q9Y618 whole entry): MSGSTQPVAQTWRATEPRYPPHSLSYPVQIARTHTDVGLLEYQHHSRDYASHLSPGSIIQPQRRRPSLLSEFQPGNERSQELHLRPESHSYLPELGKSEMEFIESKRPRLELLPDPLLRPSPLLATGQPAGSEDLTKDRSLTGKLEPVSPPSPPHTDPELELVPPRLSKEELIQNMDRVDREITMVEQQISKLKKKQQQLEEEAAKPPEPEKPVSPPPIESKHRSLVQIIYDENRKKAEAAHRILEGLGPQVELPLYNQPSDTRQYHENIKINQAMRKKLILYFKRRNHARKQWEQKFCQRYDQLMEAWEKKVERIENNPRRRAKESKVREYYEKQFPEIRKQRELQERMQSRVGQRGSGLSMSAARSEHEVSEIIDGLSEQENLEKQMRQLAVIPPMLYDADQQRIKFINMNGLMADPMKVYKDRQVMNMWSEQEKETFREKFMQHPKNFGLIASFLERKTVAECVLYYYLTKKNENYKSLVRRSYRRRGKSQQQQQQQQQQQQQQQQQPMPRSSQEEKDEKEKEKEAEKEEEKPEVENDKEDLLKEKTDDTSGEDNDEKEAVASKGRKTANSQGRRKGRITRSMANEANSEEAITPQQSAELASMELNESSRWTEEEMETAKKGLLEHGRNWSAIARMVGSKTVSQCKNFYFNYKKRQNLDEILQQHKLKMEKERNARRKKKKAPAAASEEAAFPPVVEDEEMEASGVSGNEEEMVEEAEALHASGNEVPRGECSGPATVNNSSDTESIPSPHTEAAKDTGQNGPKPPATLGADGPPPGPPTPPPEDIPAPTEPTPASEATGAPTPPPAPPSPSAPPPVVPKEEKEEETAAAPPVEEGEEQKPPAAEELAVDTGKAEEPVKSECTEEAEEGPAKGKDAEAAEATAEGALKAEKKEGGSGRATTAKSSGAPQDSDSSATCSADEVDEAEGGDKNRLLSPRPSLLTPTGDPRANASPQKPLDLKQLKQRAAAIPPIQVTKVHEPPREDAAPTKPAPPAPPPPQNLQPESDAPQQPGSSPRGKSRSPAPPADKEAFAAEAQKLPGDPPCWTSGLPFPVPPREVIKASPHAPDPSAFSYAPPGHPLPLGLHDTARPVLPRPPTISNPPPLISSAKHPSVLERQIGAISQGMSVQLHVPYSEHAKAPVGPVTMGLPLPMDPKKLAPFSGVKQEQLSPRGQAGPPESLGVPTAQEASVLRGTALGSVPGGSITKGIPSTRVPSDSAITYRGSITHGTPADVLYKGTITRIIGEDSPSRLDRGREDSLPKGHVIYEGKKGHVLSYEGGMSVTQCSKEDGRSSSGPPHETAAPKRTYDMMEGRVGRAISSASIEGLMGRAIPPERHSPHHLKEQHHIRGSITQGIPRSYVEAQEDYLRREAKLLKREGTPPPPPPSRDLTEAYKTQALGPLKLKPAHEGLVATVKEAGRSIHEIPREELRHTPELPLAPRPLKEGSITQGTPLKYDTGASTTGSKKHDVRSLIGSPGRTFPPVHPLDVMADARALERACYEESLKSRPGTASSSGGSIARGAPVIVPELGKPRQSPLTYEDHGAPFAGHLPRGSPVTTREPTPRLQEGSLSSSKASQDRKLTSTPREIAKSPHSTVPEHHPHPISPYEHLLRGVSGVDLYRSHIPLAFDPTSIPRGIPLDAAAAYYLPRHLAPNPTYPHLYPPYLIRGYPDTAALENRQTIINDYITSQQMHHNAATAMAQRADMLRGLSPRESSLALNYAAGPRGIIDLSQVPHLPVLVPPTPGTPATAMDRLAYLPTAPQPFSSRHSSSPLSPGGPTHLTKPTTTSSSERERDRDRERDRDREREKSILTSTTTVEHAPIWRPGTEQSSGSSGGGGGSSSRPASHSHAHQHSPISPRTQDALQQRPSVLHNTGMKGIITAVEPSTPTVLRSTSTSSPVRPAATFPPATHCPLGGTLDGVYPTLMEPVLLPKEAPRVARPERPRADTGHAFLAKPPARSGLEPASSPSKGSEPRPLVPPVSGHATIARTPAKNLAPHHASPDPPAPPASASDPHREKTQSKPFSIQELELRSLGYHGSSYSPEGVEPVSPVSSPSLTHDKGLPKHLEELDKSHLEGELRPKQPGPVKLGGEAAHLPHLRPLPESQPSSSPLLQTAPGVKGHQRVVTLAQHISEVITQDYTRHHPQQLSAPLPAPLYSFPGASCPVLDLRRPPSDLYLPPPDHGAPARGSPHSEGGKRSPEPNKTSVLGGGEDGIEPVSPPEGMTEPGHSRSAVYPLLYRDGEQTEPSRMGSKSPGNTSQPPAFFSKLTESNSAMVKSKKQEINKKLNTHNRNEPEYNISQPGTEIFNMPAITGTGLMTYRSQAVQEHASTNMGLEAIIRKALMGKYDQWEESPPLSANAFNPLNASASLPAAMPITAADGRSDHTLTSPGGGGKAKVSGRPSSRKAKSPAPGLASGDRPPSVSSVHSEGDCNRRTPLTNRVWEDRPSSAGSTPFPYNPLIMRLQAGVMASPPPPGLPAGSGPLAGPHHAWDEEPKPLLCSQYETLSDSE

Msx2-interacting protein (Homo sapiens), Q96T58 K3516A
effect of a mutation on the interaction: disrupting interaction strength

Msx2-interacting protein (Homo sapiens), Q96T58 L3515A
effect of a mutation on the interaction: decreasing interaction strength

Msx2-interacting protein (Homo sapiens), Q96T58 R3552K
effect of a mutation on the interaction: decreasing interaction strength

Msx2-interacting protein (Homo sapiens), Q96T58 Y3602A
effect of a mutation on the interaction: decreasing interaction strength

Msx2-interacting protein (Homo sapiens), Q96T58 K3606A
effect of a mutation on the interaction: disrupting interaction strength

Msx2-interacting protein (Homo sapiens), Q96T58 M3553A
effect of a mutation on the interaction: decreasing interaction strength

Msx2-interacting protein (Homo sapiens), Q96T58 R3554A
effect of a mutation on the interaction: decreasing interaction strength

Msx2-interacting protein (Homo sapiens), Q96T58 R3552A
effect of a mutation on the interaction: disrupting interaction strength

Msx2-interacting protein (Homo sapiens), Q96T58 R3548A
effect of a mutation on the interaction: decreasing interaction strength

Msx2-interacting protein (Homo sapiens), Q96T58 Q3551A
effect of a mutation on the interaction: decreasing interaction strength
